Assay results published in the supplement of paper PMC9233669.
Fewer inactive variants are shown than the library holds.

Legend:
[1] = system: biotinyl-Trp-oxazolone; test: self-aminoacylation, catalytic enhancement (BWO) (fold over background); higher = more active; k-Seq, kA / k0A0; sequences stand for … in GGGAAUGGAUCCACAUCUACGAAUUC…UUCACUGCAGACUUGACGAAGCUG
Method in brief: (§1)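 Each biotinyl-aminoacyl-oxazolone, at 2–1250 μM, was incubated with mutagenized RNA pools (0.43 μM) carrying a 21-nt variable region. The 50 μL reactions contained HEPES/NaCl/KCl/MgCl2/CaCl2 buffer with 5% acetonitrile at pH 6.9–7.0 and ran for 90 minutes at room temperature. After streptavidin capture, RNA was measured by qPCR in triplicate and by Illumina sequencing, and catalytic enhancement was calculated as median kA over the uncatalyzed rate from a pseudo-first-order fit of per-sequence fraction reacted.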

[2] = system: biotinyl-Met-oxazolone; test: self-aminoacylation, catalytic enhancement (BMO) (fold over background); higher = more active; k-Seq, kA / k0A0; sequences stand for … in GGGAAUGGAUCCACAUCUACGAAUUC…UUCACUGCAGACUUGACGAAGCUG
Method in brief: as §1

[3] = system: biotinyl-Phe-oxazolone; test: self-aminoacylation, catalytic enhancement (BFO) (fold over background); higher = more active; k-Seq, kA / k0A0; sequences stand for … in GGGAAUGGAUCCACAUCUACGAAUUC…UUCACUGCAGACUUGACGAAGCUG
Method in brief: as §1

[4] = system: biotinyl-Ile-oxazolone; test: self-aminoacylation, catalytic enhancement (BIO) (fold over background); higher = more active; k-Seq, kA / k0A0; sequences stand for … in GGGAAUGGAUCCACAUCUACGAAUUC…UUCACUGCAGACUUGACGAAGCUG
Method in brief: as §1

[5] = system: biotinyl-Val-oxazolone; test: self-aminoacylation, catalytic enhancement (BVO) (fold over background); higher = more active; k-Seq, kA / k0A0; sequences stand for … in GGGAAUGGAUCCACAUCUACGAAUUC…UUCACUGCAGACUUGACGAAGCUG
Method in brief: as §1

[6] = system: biotinyl-Leu-oxazolone; test: self-aminoacylation, catalytic enhancement (BLO) (fold over background); higher = more active; k-Seq, kA / k0A0; sequences stand for … in GGGAAUGGAUCCACAUCUACGAAUUC…UUCACUGCAGACUUGACGAAGCUG
Method in brief: as §1

Sequence | self-aminoacylation [1] | self-aminoacylation [2] | self-aminoacylation [3] | self-aminoacylation [4] | self-aminoacylation [5] | self-aminoacylation [6]
AAAUCUGCUAAUAGUCGCAAG [Fam3.1 aminoacylation ribozyme variant] | 9.08 | 2.01 | 19.3 | 2.48 | 2.04 | –
AAAUUUACUAAUAGUCGCAAG [Fam3.1 aminoacylation ribozyme variant] | 2.31 | 2.27 | 3.14 | 2.35 | 2.21 | 1.89
AAAUUUGCUAAAAGUCGCAAG [Fam3.1 aminoacylation ribozyme variant] | 2.75 | 1.93 | 2.5 | 2.08 | 1.75 | 2.26
AAAUUUGCUAACAGUCGCAAG [Fam3.1 aminoacylation ribozyme variant] | – | – | 2.2 | 2.02 | – | –
AAAUUUGCUAAUAGUCGCAAU [Fam3.1 aminoacylation ribozyme variant] | 3.09 | 2.35 | 2.52 | 2.71 | 2.13 | 2.33
AAAUUUGCUAAUAGUGGCAAG [Fam3.1 aminoacylation ribozyme variant] | 0.533 | 0.697 | 0.608 | 1.01 | 0.74 | 0.7
AAAUUUGCUGAUAGUCGCAAG [Fam3.1 aminoacylation ribozyme variant] | 2.23 | 1.97 | 2.14 | 1.73 | 1.69 | 1.86
AACACCCUGGUCAUCGAGUGA [Fam2.1 aminoacylation ribozyme variant] | 8.34 | 7.5 | 7.58 | 4.52 | 4.39 | 6.79
AACCACCUAGGUCAUCGGGUG [Fam2.2 aminoacylation ribozyme variant] | 6.68 | 5.6 | 28.8 | 3.78 | 4.48 | 4.62
AACUUGGCUAAUAGUCGCAAG [Fam3.1 aminoacylation ribozyme variant] | 2.31 | 2 | 2.88 | 2.42 | 1.71 | 2.62
AACUUUGCCAAUAGUCGCAAG [Fam3.1 aminoacylation ribozyme variant] | 3.85 | 2.79 | 14.7 | 2.62 | 2.64 | 2.81
AACUUUGCGAAUAGUCGCAAG [Fam3.1 aminoacylation ribozyme variant] | 2.9 | 2.67 | 4.36 | 2.42 | 2.4 | 2.6
AACUUUGCUAAAAGUCGCAAG [Fam3.1 aminoacylation ribozyme variant] | 4.13 | 2.47 | 6.96 | 3.11 | 2.54 | 2.98
AACUUUGCUAAUACUCGCAAG [Fam3.1 aminoacylation ribozyme variant] | – | – | 2.02 | 2.19 | – | –
AAGCAUGCUAAUAGUCGCAAG [Fam3.1 aminoacylation ribozyme variant] | 2.61 | 2.61 | 6.71 | 2.36 | – | –
AAGCUUGCUAAUAUUCGCAAG [Fam3.1 aminoacylation ribozyme variant] | 3.38 | – | – | 2.47 | 2.13 | –
AAGUUAGCCAAUAGUCGCAAG [Fam3.1 aminoacylation ribozyme variant] | 2.28 | 2.22 | 2.56 | 2.02 | – | 2.35
AAGUUCGCUAAUAGUCGCACG [Fam3.1 aminoacylation ribozyme variant] | – | – | 2.18 | 2.34 | – | 2.35
AAGUUUGCCAAUAGUCGCAGG [Fam3.1 aminoacylation ribozyme variant] | 3.26 | 2.73 | 15.8 | – | 2.08 | 2.33
AAUACCCUCGUCAUCGAGUGA [Fam2.1 aminoacylation ribozyme variant] | 3.7 | 2.53 | 3.81 | 2.08 | – | 3
AAUUUUGCUAAAAGUCGCAAG [Fam3.1 aminoacylation ribozyme variant] | 3.11 | – | 2.77 | 2.1 | – | 2.38
ACGUCUGCUAAUAGUCGCAAG [Fam3.1 aminoacylation ribozyme variant] | 8.61 | 2.12 | 32.2 | 2.02 | – | –
AGUACCCUGGUCAUCGUGUGA [Fam2.1 aminoacylation ribozyme variant] | 3.88 | 3.07 | 16.3 | – | 2.06 | 3.43
AUUACACUGGUCAUAGAGUGA [Fam2.1 aminoacylation ribozyme variant] | 3.92 | 3.15 | 8.72 | – | 2.13 | 3.62
AUUACCCUGAUCAGCGAGUGA [Fam2.1 aminoacylation ribozyme variant] | 4.93 | 2.71 | 3.1 | – | 2.3 | 2.74
AUUACCCUGGCCUUCGAGUGA [Fam2.1 aminoacylation ribozyme variant] | 5.17 | 3.21 | 17.9 | – | 2.53 | 4.36
AUUACCCUGGUCACCGAGUAA [Fam2.1 aminoacylation ribozyme variant] | – | 2.62 | 10.1 | – | 2.34 | 2.46

Sequence | self-aminoacylation [1] | self-aminoacylation [2] | self-aminoacylation [3] | self-aminoacylation [4] | self-aminoacylation [5] | self-aminoacylation [6]
AUUACCCUGGUCAGCGAGCGA [Fam2.1 aminoacylation ribozyme variant] | – | 2.34 | – | – | 2.08 | 2.33
AUUACCUUGGUCCUCGAGUGA [Fam2.1 aminoacylation ribozyme variant] | 4.39 | 3.05 | 17.8 | – | 2.11 | 3.95
AUUACUCUGGCCAUCGAGUGA [Fam2.1 aminoacylation ribozyme variant] | 4.19 | 3.15 | 11.7 | 2.06 | – | 3.55
AUUCAACUAGGACAUCGGGUG [Fam2.2 aminoacylation ribozyme variant] | 2.79 | 2.42 | 17 | 2.05 | – | 3.38
AUUCACCUAGGUCAACGAGUG [Fam2.2 aminoacylation ribozyme variant] | – | 2.6 | 5.07 | 2.07 | – | 3.76
AUUCACCUCGGUCAUCGGGUC [Fam2.2 aminoacylation ribozyme variant] | – | – | 9.78 | – | 2.01 | 2.04
AUUCACCUUGGUCAUCGGGGG [Fam2.2 aminoacylation ribozyme variant] | 2.28 | 2.04 | 13 | – | 2.04 | 2.84
AUUCACGUAGGUCAUCGGGAG [Fam2.2 aminoacylation ribozyme variant] | – | 2.07 | – | – | 2.13 | –
AUUCACUUAGGUCAGCGGGUG [Fam2.2 aminoacylation ribozyme variant] | 2.75 | 2.99 | 15.6 | 2.5 | – | 3.88
AUUCCCCUGGUCAUCGAGUGG [Fam2.1 aminoacylation ribozyme variant] | 3.73 | 2.48 | – | 2.29 | 2.18 | 3.15
AUUCUCCUAGGUCAUCGGCUG [Fam2.2 aminoacylation ribozyme variant] | – | 2.49 | 9.44 | 2.19 | 2.51 | 2.54
CAGUCUGCUAAUAGUCGCAAG [Fam3.1 aminoacylation ribozyme variant] | 9.53 | 2.86 | 28.2 | 2.14 | – | –
CAGUUUGCUAAUAGUCGCAAA [Fam3.1 aminoacylation ribozyme variant] | – | – | 4.61 | 2.35 | – | –
CCACAAUUCAAGCAAUCGCUC [Fam1B.1 aminoacylation ribozyme variant] | – | 2.18 | – | 2.51 | 2.12 | 2.38
CCACACUUAAAGCAAUCGGGC [Fam1B.1 aminoacylation ribozyme variant] | – | – | – | 2.19 | – | –
CCACACUUCAAGCAAACGGCC [Fam1B.1 aminoacylation ribozyme variant] | 3.66 | – | – | 2.6 | 3.77 | 3.75
CCACACUUCAAGCAAUGGGUG [Fam1B.1 aminoacylation ribozyme variant] | 2.39 | 2.61 | 10.7 | – | 2.24 | 3
CCACACUUCAAGCAAUUGGUG [Fam1B.1 aminoacylation ribozyme variant] | 2.84 | 3.03 | 5.72 | 2.28 | – | 3.62
CCACACUUCAAGCAGUCGGCC [Fam1B.1 aminoacylation ribozyme variant] | – | 2.22 | 4.85 | – | 2.84 | 2.47
CCACACUUCAAGCAUUCGGUU [Fam1B.1 aminoacylation ribozyme variant] | – | 2.33 | 7.27 | 2.29 | 2.64 | 2.35
CCACACUUCAGGCGAUCGGUC [Fam1B.1 aminoacylation ribozyme variant] | – | 2.1 | 4.75 | – | 2.42 | –
CCACACUUCUAGCAAUCGGCC [Fam1B.1 aminoacylation ribozyme variant] | 2.72 | 2.54 | – | – | 2.2 | 2.06
CCCCACUUCAACCAAUCGGUC [Fam1B.1 aminoacylation ribozyme variant] | 53.6 | – | 101 | 2.37 | – | 2.99
GAGCUUGCUAAUAGUCGCAAG [Fam3.1 aminoacylation ribozyme variant] | 2.4 | 2.03 | 4.81 | – | 2.02 | –
GAGUUUCCUAAUAGUCGCAAG [Fam3.1 aminoacylation ribozyme variant] | 2.26 | – | 2.31 | 2.65 | 2.08 | –
GAGUUUGCUAAAAGUCGCAAG [Fam3.1 aminoacylation ribozyme variant] | 5.66 | – | 8.71 | – | 2.1 | –
GCACACAUCAAGCAAUCGGUC [Fam1B.1 aminoacylation ribozyme variant] | 2.22 | – | 3.12 | 2.01 | – | –
